Experimental data as given in patent US20150258192A1, “COMPOSITIONS AND METHODS FOR PREVENTING OR TREATING CHRONIC LUNG ALLOGRAFT DYSFUNCTION (CLAD) AND IDIOPATHIC PULMONARY FIBROSIS (IPF)” (priority 2014, published 2015).
No end group written: not given here.

molecular target: Ax1(h) (Homo sapiens, UniProt P30530); test: Kinase Profiling Assay; type: biochemical; conditions: peptide 100 μM
How it was run: (§1)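 Activity remaining relative to an uninhibited control was determined by scintillation counting of labeled substrate bound to a negatively charged filter. Radiolabeled phosphate came from ATP; the substrate carried positive charge. Duplicate measurements, within a 266-kinase human panel.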

Sequence | % activity
FAKLAARLYRKALARQLGVAA [MMI-0300] | 52%
HRRIKAWLKKIKALARQLGVAA (Mammal) [MMI-0500] | 12%
KAFAKLAARLYRKALARQLGVAA [MMI-0400] | 41%
YARAAARQARAKALARQLGVAA [MMI-0100] | 81%
YARAAARQARAKALNRQLGVA (Mammal) [MMI-0200] | 99%

molecular target: CaMKIIβ(h) (Homo sapiens, UniProt Q13554); test: Kinase Profiling Assay; type: biochemical; conditions: peptide 100 μM
How it was run: as §1

CaMKIIβ(h), sequence (Q13554 whole entry): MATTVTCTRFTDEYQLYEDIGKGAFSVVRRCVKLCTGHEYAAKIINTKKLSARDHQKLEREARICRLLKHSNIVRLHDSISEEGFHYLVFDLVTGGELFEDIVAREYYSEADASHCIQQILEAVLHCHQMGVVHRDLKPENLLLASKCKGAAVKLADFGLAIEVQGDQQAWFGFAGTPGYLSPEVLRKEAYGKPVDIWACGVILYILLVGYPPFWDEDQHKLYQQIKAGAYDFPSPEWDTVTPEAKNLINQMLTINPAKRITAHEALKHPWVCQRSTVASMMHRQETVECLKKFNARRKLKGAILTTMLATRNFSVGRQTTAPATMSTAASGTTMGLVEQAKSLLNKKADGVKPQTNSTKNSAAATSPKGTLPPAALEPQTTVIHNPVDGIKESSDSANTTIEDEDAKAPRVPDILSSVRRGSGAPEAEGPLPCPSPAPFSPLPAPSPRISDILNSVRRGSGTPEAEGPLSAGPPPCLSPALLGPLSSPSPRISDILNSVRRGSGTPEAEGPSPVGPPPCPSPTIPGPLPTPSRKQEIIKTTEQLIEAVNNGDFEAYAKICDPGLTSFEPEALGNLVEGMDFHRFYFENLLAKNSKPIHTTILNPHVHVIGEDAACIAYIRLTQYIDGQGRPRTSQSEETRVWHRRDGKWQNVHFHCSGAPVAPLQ

Sequence | % activity
FAKLAARLYRKALARQLGVAA [MMI-0300] | 2%
HRRIKAWLKKIKALARQLGVAA (Mammal) [MMI-0500] | 3%
KAFAKLAARLYRKALARQLGVAA [MMI-0400] | 11%
YARAAARQARAKALNRQLGVA (Mammal) [MMI-0200] | 53%

molecular target: T1, DMPK(h) (Homo sapiens, UniProt Q09013); test: Kinase Profiling Assay; type: biochemical; conditions: peptide 100 μM
T1 sequence (Q09013 1-629): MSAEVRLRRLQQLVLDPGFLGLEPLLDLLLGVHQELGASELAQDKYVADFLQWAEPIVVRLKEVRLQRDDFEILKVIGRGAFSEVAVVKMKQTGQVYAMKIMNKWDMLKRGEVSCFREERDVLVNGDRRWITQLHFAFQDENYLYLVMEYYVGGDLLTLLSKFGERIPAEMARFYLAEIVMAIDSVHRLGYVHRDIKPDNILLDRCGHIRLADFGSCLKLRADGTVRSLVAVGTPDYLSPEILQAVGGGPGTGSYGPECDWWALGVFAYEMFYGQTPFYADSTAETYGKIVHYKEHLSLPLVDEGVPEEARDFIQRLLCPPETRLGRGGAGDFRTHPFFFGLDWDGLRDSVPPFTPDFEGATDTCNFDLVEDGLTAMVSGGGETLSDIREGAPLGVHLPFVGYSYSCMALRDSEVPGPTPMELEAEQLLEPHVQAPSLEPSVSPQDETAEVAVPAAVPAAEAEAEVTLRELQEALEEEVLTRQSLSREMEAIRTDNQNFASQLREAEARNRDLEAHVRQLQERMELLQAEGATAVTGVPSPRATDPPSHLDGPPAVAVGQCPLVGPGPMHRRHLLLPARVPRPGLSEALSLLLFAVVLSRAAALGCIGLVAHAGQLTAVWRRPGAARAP
How it was run: as §1

Sequence | % activity
FAKLAARLYRKALARQLGVAA [MMI-0300] | 59%
HRRIKAWLKKIKALARQLGVAA (Mammal) [MMI-0500] | 12%
KAFAKLAARLYRKALARQLGVAA [MMI-0400] | 54%
YARAAARQARAKALNRQLGVA (Mammal) [MMI-0200] | 66%

molecular target: EGFR(L858R)(h) (Homo sapiens, UniProt P00533, L858R); test: Kinase Profiling Assay; type: biochemical; conditions: peptide 100 μM
How it was run: as §1

Sequence | % activity
HRRIKAWLKKIKALARQLGVAA (Mammal) [MMI-0500] | 26%
KAFAKLAARLYRKALARQLGVAA [MMI-0400] | 52%
YARAAARQARAKALARQLGVAA [MMI-0100] | 76%
YARAAARQARAKALNRQLGVA (Mammal) [MMI-0200] | 120%

molecular target: T2, HIPK2(h) (Homo sapiens, UniProt Q9H2X6); test: Kinase Profiling Assay; type: biochemical; conditions: peptide 100 μM
T2 construct: purchased Millipore
How it was run: as §1

Sequence | % activity
FAKLAARLYRKALARQLGVAA [MMI-0300] | 73%
HRRIKAWLKKIKALARQLGVAA (Mammal) [MMI-0500] | 38%
KAFAKLAARLYRKALARQLGVAA [MMI-0400] | 90%
YARAAARQARAKALARQLGVAA [MMI-0100] | 98%

molecular target: T3, MAPKAP-K3(h) (Homo sapiens, UniProt Q16644); test: Kinase Profiling Assay; type: biochemical; conditions: peptide 100 μM
T3 construct: purchased Millipore
How it was run: as §1

T3 sequence (Q16644 whole entry): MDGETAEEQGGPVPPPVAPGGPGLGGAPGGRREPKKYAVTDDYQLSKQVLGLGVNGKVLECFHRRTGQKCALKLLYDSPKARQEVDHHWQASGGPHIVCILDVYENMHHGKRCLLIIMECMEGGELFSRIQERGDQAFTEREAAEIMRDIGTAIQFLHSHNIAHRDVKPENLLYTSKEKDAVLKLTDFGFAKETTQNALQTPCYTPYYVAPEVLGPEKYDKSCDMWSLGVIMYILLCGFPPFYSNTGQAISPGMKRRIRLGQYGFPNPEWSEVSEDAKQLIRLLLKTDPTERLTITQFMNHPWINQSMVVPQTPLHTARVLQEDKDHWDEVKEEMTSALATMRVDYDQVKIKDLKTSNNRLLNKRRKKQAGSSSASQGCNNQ

Sequence | % activity
FAKLAARLYRKALARQLGVAA [MMI-0300] | 3%
HRRIKAWLKKIKALARQLGVAA (Mammal) [MMI-0500] | 9%
KAFAKLAARLYRKALARQLGVAA [MMI-0400] | 7%
YARAAARQARAKALARQLGVAA [MMI-0100] | 27%
YARAAARQARAKALNRQLGVA (Mammal) [MMI-0200] | 39%

molecular target: T4, NEK6(h) (Homo sapiens, UniProt Q9HC98); test: Kinase Profiling Assay; type: biochemical; conditions: peptide 100 μM
T4 construct: purchased Millipore
How it was run: as §1

T4 sequence (Q9HC98 whole entry): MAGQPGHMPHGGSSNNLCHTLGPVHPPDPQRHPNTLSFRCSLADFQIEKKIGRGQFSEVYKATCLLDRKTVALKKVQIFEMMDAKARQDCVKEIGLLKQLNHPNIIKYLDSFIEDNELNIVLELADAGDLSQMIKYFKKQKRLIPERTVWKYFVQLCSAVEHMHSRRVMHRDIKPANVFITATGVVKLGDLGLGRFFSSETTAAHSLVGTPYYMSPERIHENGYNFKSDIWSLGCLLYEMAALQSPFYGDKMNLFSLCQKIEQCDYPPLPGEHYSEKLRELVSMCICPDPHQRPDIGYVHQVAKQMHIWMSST

Sequence | % activity
FAKLAARLYRKALARQLGVAA [MMI-0300] | 82%
HRRIKAWLKKIKALARQLGVAA (Mammal) [MMI-0500] | 49%
KAFAKLAARLYRKALARQLGVAA [MMI-0400] | 85%
YARAAARQARAKALNRQLGVA (Mammal) [MMI-0200] | 98%

molecular target: PKBγ(h) (Homo sapiens, UniProt Q9Y243); test: Kinase Profiling Assay; type: biochemical; conditions: peptide 100 μM
How it was run: as §1

PKBγ(h), sequence (Q9Y243 whole entry): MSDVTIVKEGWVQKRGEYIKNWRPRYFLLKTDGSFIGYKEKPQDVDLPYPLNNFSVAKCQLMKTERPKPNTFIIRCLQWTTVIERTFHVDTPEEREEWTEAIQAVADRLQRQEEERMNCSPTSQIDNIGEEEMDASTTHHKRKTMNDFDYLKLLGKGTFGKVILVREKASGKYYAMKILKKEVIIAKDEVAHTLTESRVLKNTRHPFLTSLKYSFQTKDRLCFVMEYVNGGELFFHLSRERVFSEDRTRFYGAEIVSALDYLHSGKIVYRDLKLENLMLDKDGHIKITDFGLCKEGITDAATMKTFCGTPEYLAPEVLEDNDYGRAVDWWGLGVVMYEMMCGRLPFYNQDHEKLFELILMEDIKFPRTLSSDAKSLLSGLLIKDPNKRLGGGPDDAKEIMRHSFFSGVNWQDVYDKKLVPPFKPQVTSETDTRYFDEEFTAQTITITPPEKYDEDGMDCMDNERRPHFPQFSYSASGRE

Sequence | % activity
FAKLAARLYRKALARQLGVAA [MMI-0300] | 20%
HRRIKAWLKKIKALARQLGVAA (Mammal) [MMI-0500] | 20%
KAFAKLAARLYRKALARQLGVAA [MMI-0400] | 41%

molecular target: T5, PKG1β(h) (Homo sapiens, UniProt Q13976); test: Kinase Profiling Assay; type: biochemical; conditions: peptide 100 μM
T5 sequence (Q13976 1-686 isoform Q13976-2): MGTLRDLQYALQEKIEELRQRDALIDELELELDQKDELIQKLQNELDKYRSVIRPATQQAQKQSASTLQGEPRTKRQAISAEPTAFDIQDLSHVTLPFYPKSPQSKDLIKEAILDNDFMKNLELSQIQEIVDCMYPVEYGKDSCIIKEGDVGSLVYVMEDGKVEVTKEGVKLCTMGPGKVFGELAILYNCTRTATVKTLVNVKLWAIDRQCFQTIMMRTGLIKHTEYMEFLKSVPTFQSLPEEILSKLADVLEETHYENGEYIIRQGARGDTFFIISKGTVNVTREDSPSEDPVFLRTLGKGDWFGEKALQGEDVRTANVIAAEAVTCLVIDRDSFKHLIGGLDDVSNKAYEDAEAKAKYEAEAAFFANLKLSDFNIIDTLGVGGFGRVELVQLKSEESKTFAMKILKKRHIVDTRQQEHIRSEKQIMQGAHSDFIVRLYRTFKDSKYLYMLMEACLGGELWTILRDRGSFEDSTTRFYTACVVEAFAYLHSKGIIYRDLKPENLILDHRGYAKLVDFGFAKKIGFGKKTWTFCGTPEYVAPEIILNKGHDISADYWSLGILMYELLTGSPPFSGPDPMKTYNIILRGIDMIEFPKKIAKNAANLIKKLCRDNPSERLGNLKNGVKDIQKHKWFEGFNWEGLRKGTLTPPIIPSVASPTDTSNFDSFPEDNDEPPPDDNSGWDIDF
How it was run: as §1

Sequence | % activity
FAKLAARLYRKALARQLGVAA [MMI-0300] | 50%
HRRIKAWLKKIKALARQLGVAA (Mammal) [MMI-0500] | 24%
KAFAKLAARLYRKALARQLGVAA [MMI-0400] | 53%
YARAAARQARAKALARQLGVAA [MMI-0100] | 71%
YARAAARQARAKALNRQLGVA (Mammal) [MMI-0200] | 57%

molecular target: ROCK-I(h) (Homo sapiens, UniProt Q13464); test: Kinase Profiling Assay; type: biochemical; conditions: peptide 100 μM
How it was run: as §1

ROCK-I(h), sequence (Q13464 whole entry): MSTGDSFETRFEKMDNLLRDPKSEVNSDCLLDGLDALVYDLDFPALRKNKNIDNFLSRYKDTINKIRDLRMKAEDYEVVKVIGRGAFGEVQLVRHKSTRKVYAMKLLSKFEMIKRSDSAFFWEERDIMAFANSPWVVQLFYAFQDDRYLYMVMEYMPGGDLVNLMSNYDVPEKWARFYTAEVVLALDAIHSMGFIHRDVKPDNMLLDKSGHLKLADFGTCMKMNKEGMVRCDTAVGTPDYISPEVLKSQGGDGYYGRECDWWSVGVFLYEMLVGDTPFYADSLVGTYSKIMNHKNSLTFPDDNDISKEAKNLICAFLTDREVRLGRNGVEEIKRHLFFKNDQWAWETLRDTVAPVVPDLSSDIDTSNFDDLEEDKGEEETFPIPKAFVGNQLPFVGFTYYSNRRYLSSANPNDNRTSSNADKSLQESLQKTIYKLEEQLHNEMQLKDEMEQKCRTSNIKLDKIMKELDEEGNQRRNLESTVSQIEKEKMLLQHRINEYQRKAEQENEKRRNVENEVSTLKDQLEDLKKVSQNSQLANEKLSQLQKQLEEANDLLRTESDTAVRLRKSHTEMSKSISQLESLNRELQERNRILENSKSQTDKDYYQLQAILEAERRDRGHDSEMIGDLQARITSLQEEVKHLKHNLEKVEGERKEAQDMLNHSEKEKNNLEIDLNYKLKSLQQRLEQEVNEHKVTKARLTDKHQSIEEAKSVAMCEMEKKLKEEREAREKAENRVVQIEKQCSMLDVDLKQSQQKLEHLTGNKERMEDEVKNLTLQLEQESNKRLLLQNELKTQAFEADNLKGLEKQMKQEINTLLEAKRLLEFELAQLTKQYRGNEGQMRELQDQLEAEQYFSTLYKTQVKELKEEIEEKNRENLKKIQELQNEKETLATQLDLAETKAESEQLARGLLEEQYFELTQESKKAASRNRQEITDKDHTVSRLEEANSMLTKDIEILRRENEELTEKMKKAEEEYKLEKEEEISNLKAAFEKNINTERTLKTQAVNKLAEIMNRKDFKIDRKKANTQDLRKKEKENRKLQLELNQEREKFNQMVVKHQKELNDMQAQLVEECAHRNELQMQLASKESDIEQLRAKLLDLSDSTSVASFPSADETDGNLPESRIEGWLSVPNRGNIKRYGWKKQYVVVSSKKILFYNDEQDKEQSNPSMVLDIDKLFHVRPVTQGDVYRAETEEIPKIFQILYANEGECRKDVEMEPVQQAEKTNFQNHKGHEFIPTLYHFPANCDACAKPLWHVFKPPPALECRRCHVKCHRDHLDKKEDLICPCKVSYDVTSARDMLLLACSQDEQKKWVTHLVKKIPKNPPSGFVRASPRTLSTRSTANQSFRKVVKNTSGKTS

Sequence | % activity
FAKLAARLYRKALARQLGVAA [MMI-0300] | 79%
HRRIKAWLKKIKALARQLGVAA (Mammal) [MMI-0500] | 17%
KAFAKLAARLYRKALARQLGVAA [MMI-0400] | 73%

molecular target: Ros(h) (Homo sapiens, UniProt P08922); test: Kinase Profiling Assay; type: biochemical; conditions: peptide 100 μM
How it was run: as §1

Sequence | % activity
FAKLAARLYRKALARQLGVAA [MMI-0300] | 95%
HRRIKAWLKKIKALARQLGVAA (Mammal) [MMI-0500] | 150%
KAFAKLAARLYRKALARQLGVAA [MMI-0400] | 99%
YARAAARQARAKALNRQLGVA (Mammal) [MMI-0200] | 86%

molecular target: Rsk1(h) (Homo sapiens, UniProt Q15418); test: Kinase Profiling Assay; type: biochemical; conditions: peptide 100 μM
How it was run: as §1

Rsk1(h), sequence (Q15418 whole entry): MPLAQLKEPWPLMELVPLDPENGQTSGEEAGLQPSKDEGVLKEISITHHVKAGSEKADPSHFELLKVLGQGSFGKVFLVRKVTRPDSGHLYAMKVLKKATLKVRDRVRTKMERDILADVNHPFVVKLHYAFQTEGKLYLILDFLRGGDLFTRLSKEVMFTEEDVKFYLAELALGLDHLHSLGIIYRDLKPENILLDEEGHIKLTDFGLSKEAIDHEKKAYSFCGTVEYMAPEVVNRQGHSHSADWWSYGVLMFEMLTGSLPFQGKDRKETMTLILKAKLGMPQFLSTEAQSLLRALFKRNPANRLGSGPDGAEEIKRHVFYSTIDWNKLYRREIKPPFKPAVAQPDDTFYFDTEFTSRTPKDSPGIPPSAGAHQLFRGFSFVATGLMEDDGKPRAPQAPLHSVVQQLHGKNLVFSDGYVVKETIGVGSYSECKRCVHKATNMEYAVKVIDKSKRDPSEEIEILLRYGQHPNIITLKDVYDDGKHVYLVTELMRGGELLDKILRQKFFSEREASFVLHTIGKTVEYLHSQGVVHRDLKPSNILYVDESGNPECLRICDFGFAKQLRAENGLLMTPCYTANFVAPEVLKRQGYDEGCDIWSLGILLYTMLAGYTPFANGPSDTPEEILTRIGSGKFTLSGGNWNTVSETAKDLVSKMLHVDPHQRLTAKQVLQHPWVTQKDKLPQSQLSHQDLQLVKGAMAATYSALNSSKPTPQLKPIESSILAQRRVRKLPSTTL

Sequence | % activity
FAKLAARLYRKALARQLGVAA [MMI-0300] | 46%
HRRIKAWLKKIKALARQLGVAA (Mammal) [MMI-0500] | 34%
KAFAKLAARLYRKALARQLGVAA [MMI-0400] | 54%
YARAAARQARAKALARQLGVAA [MMI-0100] | 86%

molecular target: T6, SAPK2a(T106M)(h) (Homo sapiens, UniProt Q16539, T106M); test: Kinase Profiling Assay; type: biochemical; conditions: peptide 100 μM
T6 construct: purchased Millipore
How it was run: as §1

T6 sequence (Q16539 whole entry T106M): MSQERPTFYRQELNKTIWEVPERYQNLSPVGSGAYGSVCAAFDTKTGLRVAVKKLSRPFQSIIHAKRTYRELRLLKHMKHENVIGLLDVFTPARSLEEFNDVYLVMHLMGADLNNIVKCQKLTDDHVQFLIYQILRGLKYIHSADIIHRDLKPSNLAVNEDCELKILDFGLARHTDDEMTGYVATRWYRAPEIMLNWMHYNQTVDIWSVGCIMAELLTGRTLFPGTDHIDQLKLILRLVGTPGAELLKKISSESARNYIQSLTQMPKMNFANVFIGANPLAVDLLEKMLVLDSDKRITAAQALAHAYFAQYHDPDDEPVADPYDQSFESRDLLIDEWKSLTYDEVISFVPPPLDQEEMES

Sequence | % activity
FAKLAARLYRKALARQLGVAA [MMI-0300] | 97%
HRRIKAWLKKIKALARQLGVAA (Mammal) [MMI-0500] | 32%
KAFAKLAARLYRKALARQLGVAA [MMI-0400] | 99%
YARAAARQARAKALARQLGVAA [MMI-0100] | 101%
YARAAARQARAKALNRQLGVA (Mammal) [MMI-0200] | 100%

molecular target: T7, Src(T341M)(h) (Homo sapiens, UniProt P12931, T341M); test: Kinase Profiling Assay; type: biochemical; conditions: peptide 100 μM
T7 construct: purchased Millipore
How it was run: as §1

Sequence | % activity
FAKLAARLYRKALARQLGVAA [MMI-0300] | 70%
HRRIKAWLKKIKALARQLGVAA (Mammal) [MMI-0500] | 59%
KAFAKLAARLYRKALARQLGVAA [MMI-0400] | 76%
YARAAARQARAKALNRQLGVA (Mammal) [MMI-0200] | 56%

molecular target: T8, Syk(h) (Homo sapiens, UniProt P43405); test: Kinase Profiling Assay; type: biochemical; conditions: peptide 100 μM
T8 construct: purchased Millipore
How it was run: as §1

Sequence | % activity
FAKLAARLYRKALARQLGVAA [MMI-0300] | 24%
HRRIKAWLKKIKALARQLGVAA (Mammal) [MMI-0500] | 5%
KAFAKLAARLYRKALARQLGVAA [MMI-0400] | 9%
YARAAARQARAKALNRQLGVA (Mammal) [MMI-0200] | 36%

molecular target: eEF-2K(h) (Homo sapiens, UniProt O00418); test: Kinase Profiling Assay; type: biochemical; conditions: peptide 100 μM
How it was run: as §1

Sequence | % activity
FAKLAARLYRKALARQLGVAA [MMI-0300] | 91%
HRRIKAWLKKIKALARQLGVAA (Mammal) [MMI-0500] | 43%
KAFAKLAARLYRKALARQLGVAA [MMI-0400] | 43%
